Results taken from the supplement of paper PMC9112550, “Optimization of the antimicrobial peptide Bac7 by deep mutational scanning” (BMC Biology, 2022).

System: Escherichia coli TOP10
Assay: shrunken log2 fold change of peptide-encoding DNA abundance (4.5 h post-induction vs induction); higher = less antimicrobial activity (less host growth inhibition)
Settings: time post-induction: 4.5 h; library: site-saturation at positions 5, 18, 19, 20
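Note: peptides expressed intracellularly from a pBAD plasmid library in pooled LB shake-flask culture, induced with 0.3% L-arabinose, DNA abundance read by NGS, three biological replicates, DESeq2 with apeglm shrinkage.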

| Sequence | shrunken log2 fold change |
| --- | --- |
| RRIRQRPPRLPRPRPRPSPMPRP | 0.0696 |
| RRIRRRPPRLPRPRPRPALAPRP | 0.516 |
| RRIRGRPPRLPRPRPRPVCIPRP | 0.344 |
| RRIRERPPRLPRPRPRPGDGPRP | 0.389 |
| RRIRNRPPRLPRPRPRPIEYPRP | -0.0134 |
| RRIRWRPPRLPRPRPRPDMNPRP | 0.143 |
| RRIRQRPPRLPRPRPRPQDLPRP | -0.243 |
| RRIRHRPPRLPRPRPRPQPRPRP | 0.282 |
| RRIRFRPPRLPRPRPRPFNEPRP | -0.322 |
| RRIRERPPRLPRPRPRPKQTPRP | -0.0871 |
| RRIRFRPPRLPRPRPRPVHYPRP | -0.195 |
| RRIRYRPPRLPRPRPRPVDDPRP | -0.443 |
| RRIRNRPPRLPRPRPRPVGCPRP | 0.618 |
| RRIRNRPPRLPRPRPRPIETPRP | -0.0081 |
| RRIRFRPPRLPRPRPRPHKKPRP | -0.369 |
| RRIRMRPPRLPRPRPRPMGGPRP | 0.131 |
| RRIRIRPPRLPRPRPRPLNNPRP | -1.15 |
| RRIRNRPPRLPRPRPRPCWNPRP | -0.429 |
| RRIRGRPPRLPRPRPRPLSVPRP | 0.383 |
| RRIRLRPPRLPRPRPRPRTGPRP | 0.321 |
| RRIRLRPPRLPRPRPRPDYVPRP | -0.432 |
| RRIRVRPPRLPRPRPRPDKVPRP | -0.332 |
| RRIRWRPPRLPRPRPRPQTWPRP | 0.223 |
| RRIRWRPPRLPRPRPRPFEFPRP | -0.182 |
| RRIRNRPPRLPRPRPRPCMCPRP | 0.0188 |

| Sequence | shrunken log2 fold change |
| --- | --- |
| RRIRARPPRLPRPRPRPFFVPRP | 0.149 |
| RRIRHRPPRLPRPRPRPVVVPRP | -0.149 |
| RRIRQRPPRLPRPRPRPEIGPRP | 0.0792 |
| RRIRERPPRLPRPRPRPNYCPRP | -0.0596 |
| RRIRSRPPRLPRPRPRPPLGPRP | 0.399 |
| RRIRVRPPRLPRPRPRPDHVPRP | -0.0193 |
| RRIRCRPPRLPRPRPRPHQPPRP | 0.0495 |
| RRIRARPPRLPRPRPRPVHIPRP | -0.177 |
| RRIRCRPPRLPRPRPRPIPKPRP | 0.326 |
| RRIRDRPPRLPRPRPRPAQSPRP | 0.216 |
| RRIRYRPPRLPRPRPRPKILPRP | -0.247 |
| RRIRWRPPRLPRPRPRPAYHPRP | -0.361 |
| RRIRIRPPRLPRPRPRPYMAPRP | -0.281 |
| RRIRYRPPRLPRPRPRPCGQPRP | -0.0335 |
| RRIRCRPPRLPRPRPRPQPRPRP | 0.745 |
| RRIRYRPPRLPRPRPRPKQLPRP | 0.0588 |
| RRIRQRPPRLPRPRPRPNVWPRP | 0.134 |
| RRIRARPPRLPRPRPRPSCCPRP | 0.207 |
| RRIRTRPPRLPRPRPRPQLPPRP | 0.107 |
| RRIRYRPPRLPRPRPRPNSYPRP | -2.3 |
| RRIRFRPPRLPRPRPRPFDAPRP | -0.0477 |
| RRIRIRPPRLPRPRPRPHTYPRP | -0.715 |
| RRIRQRPPRLPRPRPRPHCQPRP | -0.39 |
| RRIRCRPPRLPRPRPRPIYSPRP | -0.59 |
| RRIRTRPPRLPRPRPRPNQSPRP | -0.187 |

| Sequence | shrunken log2 fold change |
| --- | --- |
| RRIRTRPPRLPRPRPRPECYPRP | -0.0535 |
| RRIRLRPPRLPRPRPRPLMPPRP | -0.0944 |
| RRIRARPPRLPRPRPRPPWFPRP | 0.36 |
| RRIRKRPPRLPRPRPRPLASPRP | 0.0708 |
| RRIRWRPPRLPRPRPRPRWAPRP | 0.662 |
| RRIRMRPPRLPRPRPRPEWVPRP | 0.32 |
| RRIRRRPPRLPRPRPRPRLVPRP | 0.527 |
| RRIRRRPPRLPRPRPRPLWIPRP | -0.22 |
| RRIRRRPPRLPRPRPRPCLGPRP | -0.0846 |
| RRIRVRPPRLPRPRPRPCARPRP | -0.0405 |
| RRIRNRPPRLPRPRPRPTKWPRP | -0.2 |
| RRIRYRPPRLPRPRPRPCGEPRP | -0.0504 |
| RRIRDRPPRLPRPRPRPRWAPRP | 0.0236 |
| RRIRTRPPRLPRPRPRPEVAPRP | 0.0197 |
| RRIRVRPPRLPRPRPRPIPPPRP | -0.2 |
| RRIRCRPPRLPRPRPRPKNNPRP | -0.188 |
| RRIRPRPPRLPRPRPRPEPYPRP | -0.309 |
| RRIRARPPRLPRPRPRPMAFPRP | 0.0104 |
| RRIRRRPPRLPRPRPRPQFDPRP | 0.107 |
| RRIRPRPPRLPRPRPRPIGSPRP | 0.0547 |
| RRIRQRPPRLPRPRPRPMDSPRP | -0.01 |
| RRIRERPPRLPRPRPRPSARPRP | -0.192 |
| RRIRHRPPRLPRPRPRPHMRPRP | -0.00342 |
| RRIRYRPPRLPRPRPRPMNNPRP | -1.28 |
| RRIRTRPPRLPRPRPRPTMLPRP | 3.82 |

| Sequence | shrunken log2 fold change |
| --- | --- |
| RRIRRRPPRLPRPRPRPWFLPRP | -0.19 |
| RRIRCRPPRLPRPRPRPSEWPRP | -0.214 |
| RRIRNRPPRLPRPRPRPLHIPRP | -0.363 |
| RRIRHRPPRLPRPRPRPGAAPRP | 0.324 |
| RRIRDRPPRLPRPRPRPEPAPRP | 0.883 |
| RRIRRRPPRLPRPRPRPSSQPRP | -0.25 |
| RRIRGRPPRLPRPRPRPWTKPRP | 0.0647 |
| RRIRVRPPRLPRPRPRPGERPRP | 0.674 |
| RRIRVRPPRLPRPRPRPYIYPRP | -0.806 |
| RRIRMRPPRLPRPRPRPIPLPRP | 0.00552 |
| RRIRDRPPRLPRPRPRPKCQPRP | -0.00187 |
| RRIRKRPPRLPRPRPRPCLHPRP | -0.0515 |
| RRIRPRPPRLPRPRPRPVYSPRP | -0.297 |
| RRIRRRPPRLPRPRPRPPWIPRP | 0.365 |
| RRIRTRPPRLPRPRPRPYDPPRP | -0.0474 |
| RRIRLRPPRLPRPRPRPGIGPRP | 0.417 |
| RRIRWRPPRLPRPRPRPIIAPRP | 0.00853 |
| RRIRVRPPRLPRPRPRPWQHPRP | 0.0882 |
| RRIRWRPPRLPRPRPRPEGDPRP | 0.166 |
| RRIRSRPPRLPRPRPRPGIPPRP | -0.00461 |
| RRIRIRPPRLPRPRPRPYHWPRP | -0.275 |
| RRIRLRPPRLPRPRPRPHHWPRP | -0.124 |
| RRIRTRPPRLPRPRPRPSEMPRP | -0.00622 |
| RRIRPRPPRLPRPRPRPVFDPRP | 0.342 |
| RRIRVRPPRLPRPRPRPTFWPRP | 0.3 |

| Sequence | shrunken log2 fold change |
| --- | --- |
| RRIRQRPPRLPRPRPRPYSEPRP | 0.0294 |
| RRIRRRPPRLPRPRPRPRGWPRP | 0.979 |
| RRIRPRPPRLPRPRPRPRSFPRP | 0.0582 |
| RRIRRRPPRLPRPRPRPKLDPRP | 0.523 |
| RRIRKRPPRLPRPRPRPTWWPRP | 0.0302 |
| RRIRERPPRLPRPRPRPLGAPRP | -0.159 |
| RRIRGRPPRLPRPRPRPEGQPRP | 1.13 |
| RRIRCRPPRLPRPRPRPIQPPRP | -0.137 |
| RRIRYRPPRLPRPRPRPRLVPRP | -0.0287 |
| RRIRNRPPRLPRPRPRPAMEPRP | 0.243 |
| RRIRLRPPRLPRPRPRPRLKPRP | 0.885 |
| RRIRSRPPRLPRPRPRPPQQPRP | 0.38 |
| RRIRWRPPRLPRPRPRPPSPPRP | 0.598 |
| RRIRCRPPRLPRPRPRPRSQPRP | 0.0629 |
| RRIRCRPPRLPRPRPRPDGNPRP | -0.158 |
| RRIRCRPPRLPRPRPRPSNAPRP | -0.572 |
| RRIRRRPPRLPRPRPRPHRYPRP | -0.0438 |
| RRIRQRPPRLPRPRPRPSGLPRP | -0.0802 |
| RRIRCRPPRLPRPRPRPQSCPRP | 0.0547 |
| RRIRWRPPRLPRPRPRPTTPPRP | 0.642 |
| RRIRQRPPRLPRPRPRPYPLPRP | -0.73 |
| RRIRYRPPRLPRPRPRPDTYPRP | -0.145 |
| RRIRRRPPRLPRPRPRPSELPRP | 0.0695 |
| RRIRARPPRLPRPRPRPLWHPRP | 0.108 |
| RRIRHRPPRLPRPRPRPYCRPRP | -0.0455 |

| Sequence | shrunken log2 fold change |
| --- | --- |
| RRIRFRPPRLPRPRPRPPTLPRP | -0.0735 |
| RRIRARPPRLPRPRPRPEGYPRP | 0.582 |
| RRIRARPPRLPRPRPRPEADPRP | 1.53 |
| RRIRCRPPRLPRPRPRPQRSPRP | 2.66 |
| RRIRQRPPRLPRPRPRPSQIPRP | -0.0855 |
| RRIRNRPPRLPRPRPRPLIDPRP | -0.0832 |
| RRIRNRPPRLPRPRPRPTCSPRP | -0.261 |
| RRIRLRPPRLPRPRPRPLKSPRP | -0.146 |
| RRIRTRPPRLPRPRPRPCPIPRP | -0.0712 |
| RRIRGRPPRLPRPRPRPMNLPRP | 0.00442 |
| RRIRSRPPRLPRPRPRPGNSPRP | 0.0554 |
| RRIRARPPRLPRPRPRPMVEPRP | 0.0234 |
| RRIRRRPPRLPRPRPRPIPEPRP | 0.12 |
| RRIRERPPRLPRPRPRPPDFPRP | 0.00276 |
| RRIRMRPPRLPRPRPRPNEFPRP | 0.0287 |
| RRIRTRPPRLPRPRPRPHTWPRP | -0.281 |
| RRIRTRPPRLPRPRPRPTCTPRP | -0.094 |
| RRIRHRPPRLPRPRPRPMCSPRP | -0.0225 |
| RRIRSRPPRLPRPRPRPVENPRP | 0.0506 |
| RRIRKRPPRLPRPRPRPNYSPRP | -0.0472 |
| RRIRSRPPRLPRPRPRPGSFPRP | 0.209 |
| RRIRKRPPRLPRPRPRPMNGPRP | -0.0531 |
| RRIRERPPRLPRPRPRPHFDPRP | -0.14 |
| RRIRGRPPRLPRPRPRPAHHPRP | 0.452 |
| RRIRKRPPRLPRPRPRPFICPRP | 0.0135 |
